Series [1] concerns the target T1, NF-kappaB p50 (Homo sapiens, UniProt P19838 P19838:1-433). Put plainly: competition; decoy without NF-kB site did not compete. As to conditions: tags: Promega; chain copies: 2. The procedure:
(§1) The fluorescence value was measured using a real-time PCR apparatus Rotor-Gene 2000 (Corbett Life Science).

Series [2] has as its target T2, SP1 (Homo sapiens, UniProt P08047 P08047:2-785). Kind of series: competition; decoy lowered only SP1/DNA signal. As to conditions: tags: Promega. The procedure:
(§2) A mixed solution of 31F/42 and 05C/08 (40 fmol each), 800 fmol of the decoy (NF01/02 or SP01/02), a solution of a protein mixture (2.5 pmol of recombinant human SP1 and 0.125 pmol of recombinant human NFκB p50) were mixed into a reaction solution (10 mM HEPES-NaOH pH 7.9, 50 mM KCl, 0.1 mM EDTA, 5 mM DTT, 10% glycerol, 0.05% IGEPAL CA-630, 15 μL) and reacted at 25° C. for 30 minutes. A mixed solution of 32D/41 and 06B/07 (80 fmol each) was added thereto, and 50 μL of the resulting mixture was then reacted at 25° C. for 120 minutes. The fluorescence values of fluorescein and Cy3 were measured using a fluorescence plate reader Ultra (Tecan Group Ltd.). The fluorescein was excited at 485 nm, and its fluorescence was measured at 535 nm. The Cy3 was excited at 535 nm and its fluorescence was measured at 595 nm.

The target of series [3] is T1, NF-kappaB p50. Kind of series: competition; SP1 decoy did not affect NF-kB/DNA signal. The settings on record: tags: Promega; chain copies: 2. The procedure:
as §2

Series [4] addresses T1, NF-kappaB p50. Put plainly: competition; decoy restored strand exchange. As to conditions: tags: Promega; chain copies: 2. The procedure: as §1
The target in series [5] is T2, SP1. Kind of series: competition; NF-kB decoy did not affect SP1/DNA signal. As to conditions: tags: Promega. The procedure: as §2

T1 sequence (P19838 1-433, one chain of several): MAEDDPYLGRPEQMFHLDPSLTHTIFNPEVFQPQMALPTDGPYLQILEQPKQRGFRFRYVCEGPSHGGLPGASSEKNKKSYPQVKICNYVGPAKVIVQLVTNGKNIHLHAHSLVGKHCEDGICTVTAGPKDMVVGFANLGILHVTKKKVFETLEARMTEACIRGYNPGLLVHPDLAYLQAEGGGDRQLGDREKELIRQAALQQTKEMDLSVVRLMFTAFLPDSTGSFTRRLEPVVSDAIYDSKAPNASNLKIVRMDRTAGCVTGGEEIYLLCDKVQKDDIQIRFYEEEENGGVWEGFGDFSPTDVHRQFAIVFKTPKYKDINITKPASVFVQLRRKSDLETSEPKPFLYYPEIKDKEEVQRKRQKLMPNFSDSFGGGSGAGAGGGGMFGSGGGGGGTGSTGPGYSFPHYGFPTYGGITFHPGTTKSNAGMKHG
T2 sequence (P08047 2-785, one chain of several): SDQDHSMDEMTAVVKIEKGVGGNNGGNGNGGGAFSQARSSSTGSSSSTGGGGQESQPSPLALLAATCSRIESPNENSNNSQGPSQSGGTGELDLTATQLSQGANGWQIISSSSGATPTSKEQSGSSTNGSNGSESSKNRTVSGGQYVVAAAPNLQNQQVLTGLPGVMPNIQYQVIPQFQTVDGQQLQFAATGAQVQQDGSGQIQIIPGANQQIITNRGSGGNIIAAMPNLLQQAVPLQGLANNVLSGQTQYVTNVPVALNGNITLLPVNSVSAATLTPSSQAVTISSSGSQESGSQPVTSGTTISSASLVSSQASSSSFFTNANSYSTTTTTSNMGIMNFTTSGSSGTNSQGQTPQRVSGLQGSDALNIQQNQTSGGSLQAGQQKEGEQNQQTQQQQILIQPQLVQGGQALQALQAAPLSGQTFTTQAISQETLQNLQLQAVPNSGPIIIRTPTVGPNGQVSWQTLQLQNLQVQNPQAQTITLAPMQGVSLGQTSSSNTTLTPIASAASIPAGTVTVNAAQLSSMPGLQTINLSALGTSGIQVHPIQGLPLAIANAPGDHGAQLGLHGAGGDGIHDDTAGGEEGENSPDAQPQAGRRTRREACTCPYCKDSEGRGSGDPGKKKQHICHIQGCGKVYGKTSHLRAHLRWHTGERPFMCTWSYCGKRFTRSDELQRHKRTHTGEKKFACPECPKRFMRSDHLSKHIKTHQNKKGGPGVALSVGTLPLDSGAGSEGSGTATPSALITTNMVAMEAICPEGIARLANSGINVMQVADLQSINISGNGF

B1: APcpt decoy (dsDNA)
DNA 1: GGTGTCATGAGTCAGCTCGGAG
DNA 2: CTCCGAGCTGACTCATGACACC
Turning to B1, the binding result in series [1] is reported as “no binding”.

B2: SP01/02 decoy (dsDNA)
DNA 1: TCGAGCGGGGCGGGGCGACGAA
DNA 2: TTCGTCGCCCCGCCCCGCTCGA
With B2, the binding result is “binds” in series [2] and “no binding” in series [3].

B3: NFcpt decoy (NF01/02) (dsDNA)
DNA 1: GCACTAGGGACTTTCCGCCACG
DNA 2: CGTGGCGGAAAGTCCCTAGTGC
As for B3, the binding result in series [4] is “binds”; in series [5], “no binding”.

The values are drawn from patent US20110033951, “ASSAY METHOD AND KIT FOR NUCLEIC ACID BINDING PROTEIN” (Hiroshima University, published 2011).
